# Measured values published in the DeepSol protein solubility set.
# Experiment: soluble on expression in E. coli; label from the status in PepcDB or PDB records
row,Sequence,soluble on expression in E. coli
1,SLSMKLLIADDEDTIRNGIAKYIKLHTDRFSQIYLAENGQQALDIILQYQPDMMLLDVQMPLKTGLEVLQEAQKLSLVPKTIILSGYDDFEYARKALRYGAKDYLLKPCRSSEILEAINKLVQEQLGTKEDVECEEGTGIHYIVSSAIEYMEEYYHKNLTLIEVSNKVGITAGYLSTLFTQNMNCGFVEYLNKIRIKHACSYLEQNYFKTYEIAYKVGFKDEKYFSKVFKKETGITPYEYRRDHSIGKNIRTEG,soluble
2,MIYGILSKNLGMPTPTFLVCPDVVKFENVGQIAVVNGMVYLGGSVGIDKSGTLHKGLEEQTRQTFDNIRKCLEYANSGLDYIVSLNIFLSTSLSDSEEARFNELYREVFCVPATRPCRCCVRAQLQEGLLVEVVNVVAAQK,soluble
3,MGSDKIHHHHHHMKEAGILFEELVSIMEKLRSPEGCEWDRKQTHESLKPYLIEECYELIEAIDEKNDDMMKEELGDVLLQVVFHAQIARERGAFTIEDVIRTLNEKLIRRHPHVFGDSPGYSYKQWEDIKAQEKGKKKSSRIGEINPLVPALSMARRIQENASQVGFDWKDPEGVYEKIEEELKELKEAKDPRELEEEFGDLLFSIVNLSRFLNVDPESALRKATRKFVERFKKMEELIEKDGLVLEELPIEKLDEYWEKAKGGDET,not soluble
4,TLPRPFFILAPMEDVTNIVFRHVVSEAARPDVFFTEFTNTESYCHPEGIHSVRGRLTFSDDEQPMVAHIWGDKPEQFREMSIGLADMGFKGIDLNMGCPVANVAKKGKGSGLILRPETAAEIIQASKAGGLPVSVKTRLGYYDIDEWRDWLKHVFEQDIANLSIHLRTRKEMSKVDAHWELIEAIKTLRDEIAPNTLLTINGDIPDRQTGLELANKYGIDGIMIGRGIFHNPFAFEKEPREHSSKELLGL,not soluble
5,MSLKNFINFHILISHSPSCLNRDDMNMQKSAVFGGERRVRVSSQSLKRAIRKSDYYRQHLGEASVRTKKLDELIAIINDRLAGRYDTDLLKKTVGLLAGKELSVEVATEGDAVAPWAIEEVAWFCEQVKRMVAQGQDEKALGKLLKNETAAMRQALASGVDIALSGRMATSGLMSELGKVDGALAVAHVLTTHSVDADIDWFTAVDDLQELGSGHLDTQEFSSGVFYRYASLNVKQLQENLGNAPREKALEIGAHLLHMLATIVPSAKQQSFAAHNLADLALVSFSDIPVSLANAFEKPVRSVNGSGFKEPSIAELHNYWQQIHTGYGLSERCGEFILGQSSVPEGITRKSTIEELKTWVMNNGEGEGHHHHHH,soluble
6,MGSDKIHHHHHHMFPAGEMFFIESIRNVRNQIKDEKLLEDIKAFIAQEAFHSREHKMLNNHLIHSNYPEVVEIEAQTKARLDKLRQLSAVEQVAATVVMEHYTATLARLLLTDSLIKAKTTQESRNLWEWHALEELEHKSVAFDVLNAIGGNSSKNRKVALARVAKLITPIIFKYWIKILKRKDINFTLKQLKDGIYLGFGGINRVGILSKAFVDMLDVRAENFDPLNMQTEQLEAEFREKLFGQAGFLRDYLS,not soluble
7,MSLILTLDPQVAGASGDMVLGALIAVGADPNRLEEVVHEVSSLGHEVDVHVHEIQKRGIRAVRVEVDAEGDLRDPDELREAVKTVAENVLEDRWRELPELALKYLLRAEERVHGDLCHLHELGSSDTVVDLVGTAALLEDLNPKASEVLPPNVGSGTVETEHGRLPVPAPAVVEVLSEWDVGIVREGEGELLTPTGAALLRTIDELLPDPPPPYRVKRQGFGAGTKDLPDRPNVLRALICEPGGSGEHVRIVETSVDDVDGEAVGELIEAVLQLEGVHDVEVLHGFGKKGRPRFVIRVVTEDRPGIEREVFRELFRWTGTLGARVYRCTRVTADRRIVDVDGIRVKVSRFEDVHHAKPEWEDVRRKVDRESAPLTRARLVGDLRKRYEGDGEDGAGDEGHHHHHH,soluble
8,MHHHHHHSSGVDLGTENLYFQSMINSFYAFEVKDAKGRTVSLEKYKGKVSLVVNVASDCQLTDRNYLGLKELHKEFGPSHFSVLAFPCNQFGESEPRPSKEVESFARKNYGVTFPIFHKIKILGSEGEPAFRFLVDSSKKEPRWNFWKYLVNPEGQVVKFWRPEEPIEVIRPDIAALVRQVIIKKKEDL,soluble
9,MGSDKIHHHHHHMKEQNNIPTSKVERATKFVQTGAKIGGNYIKHYAKKAFNPELTKEQLHEDNSKDVYETLSQLKGSALKVAQMLSQDKNMLPQAYVDKFTMAQYSAPPLSYPLVVKTFQKYFGKSPESMFDTFERNASNAASIGQVHKATKDGKVFAVKIQYPGVAESVSSDLKLVKPFALRLMNMKEKDLDMYMDEVESKLIEETDYELELRRSNEISTQCAHITGLVFPAYYPEYSSKRILTMDWLEGLHMKEFLATNPSQEIRNQIGQLLWDFYDFQMHQLRTVHADPHPGNFLMRSNGSLGVIDFGCVKEIPEEFYTEYFKLLNKEVIEDKTELLKTFERLNFFDAEDTALQREIFFDLFCEMTHLLGLPFYSETFDFSDDSYFKRIYDFGEHISNVKEIKDARQARGSRHGIYINRTYFGLYNLLNQLGANVRTKSYGEVAIEV,not soluble
10,STSPEIASLSWGQMKVKGSNTTYKDCKVWPGGSRTWDWRETGTEHSPGVQPADVKEVVEKGVQTLVIGRGMSEALKVPSSTVEYLKKHGIDVRVLQTEQAVKEYNALVAQGVRVGGVFHSTC,soluble
11,MGSDKIHHHHHHMTENFWRELPRPFFVLAPMEDVTDVVFRHVVSEAGRPDVFFTEFTNSESYCHPDGKDSVRGRLTFTEDEQPIVAHIWGDKPENFRKMSIGMAELGFKGLDINMGCPVPNVAGNGKGSGLICRPAVAAELIQAAKAGGLPVSVKTRLGYTDVDEWREWLTHILKQDIANLSIHLRTRAEMSKVDAHWELIPEIKKLRDEVAPDTLLTINGDIPDRQTGLKLAEQYGVDGIMIGRGIFTNPFAFEKEPKEHSSKELLDLLRLHLDLHDEYSKEEARPYKPLPRFFKIYLRGFRGASELRNQCMNTKSTDEVRALLDDFERKYLDGIE,not soluble
12,MSLSVTDVAGRTVSFDAQPKRILLAEGRALMATSVLNKENPAKDVVAIGADLHKAAPSFESALRQARPQVSKLPMIGSIAKGDVTVENMLSFKPDAVVMTLDQKEAAEKAGFLQKMDQAKLPYVFIDFRRKPLENTTKSMATLGKIFGGKAISRAKEFNKFYQSKVDDVSRRVSRESDKPRTFLWRAAGLKDCCSTYANLNLGDVITAAGGHNLGADLLRTSAGDVTPEKIVATQPEHIIATGGSWAKDPKKPESVPHVELGYNVTDDDAQRTLAGLLKTPGFSLLKAPKDGKLHAVYHQFYDSPFNVFALEQFAAWQHPKQFKGVDLTKDFAKFHEDYLPFGYRGVFFVTLKEGHHHHHH,soluble
13,MKFFSAAAFVAALVASGNACIGGGAGGAGGCCPPAQPGCGNPCQGAGPQYAAAPPPPPQYAAAPQGGAYPTAGK,not soluble
14,GGLTEICRKPVSPGCISSVSDWLISIGLPMYAGTLSTAGFSTLSQVPSLSHTCLQEAGITEERHIRKLLSAARLFKLPPGPEAM,soluble
15,MGSDKIHHHHHHGKKDKEKIIDDFKVAVVTQPLSENKVQYNMVEEMAKEYEEENKIDKDKDGQTKVKQTIKHVVLPENFTSNIDSAINKIVKLADDKEVQAIVVSTDQAGLLPALQKVKEKRPEIITISAPMGDDKNQLSQFVDVNLGVSAEERGKVLAERSKEMGAKAFIHYASTDDLKDVNIAKRLEMIKETCKNIGLPFVQVNTPNINTEEDKNKVKQFLNEDIEKQVKKYGKDINVFGVNEYMDEVILTKALELKYIVAEQSNPSPIQTYPSVMGLKISEKDAQNYDKINDMISEKAKAFGMSNRLGGYPMPMDAFLPSLAIYLATEMVKQDLTQEDVCDPDYLEAFTELRFGIGSEFTPLTEVLYNYQSVILSQLIY,not soluble
16,THVYNYDIPQDPESYVHRIGRTGRAGATGTSVTFVTNWEMDYLRDVEHLTKKRLLPMKPPTEEEAFAGRAAMAEQSIEELVQKTDVAKFEEQVDHLLEQHDAKTLVAALLNEVTKSDASEIKVKITPERPLPR,not soluble
17,MSLNNIMKVVIIGAGPAGVYSALTLSKHAKVTLIEREEKLGGTCVLYGCIPTKSILSQLIISRQASNMSLNTLREYALTSINTISKSLEHLLNSHGIEVIHANGFLRSSMVHASNTSLAADKVLVSTGTRRERLGKVKFTEDLAYTNEDYNKVVIVGGDAGGIELGWMMKKLGKEVHLIDKNDLLLQNIDRTLSEIVTNFLSQIGIKLYLGKKVSKIDETSVTLEDNQKISGDAVFVTFGRKPNIEGFEEIPHEKYIYVDEYLRTQIPNIYAAGDIIGTFTAHEAIYAGIIAAKNMLGEKREFIVEGIPKVIYIYPQIAYVGTTNGNCVTFNTLNLTRTIVERESEGFLKICERDNRVIGAVAFMPYAEDVISLISVLIRYQISLKDTIDLVMPHPSYLEAITEALNMLQSKGEGHHHHHH,not soluble
18,MGSDKIHHHHHHMPRKTATATKLFVLDTNVLMHDPTSLFRFEEHDVYVPIATLEELDQHKKGMTEVSRNARQASRFLDEIVRKLDSIDEGVPLAPHSHNAATGRLFLQTQAISGDIPVNLPTSKVDNQILGVVLFLSRHHTKRQVILVSKDINMRIKARALGLPAEDYFNDKVLEDTDLLYPGLRELPADFWDTHGKGMESWQANGHTYYRVKGPLVASLLPNEFVFQEGASPLYAKVLKVEGKHAEMVTIRDFGHHKNNVWGITARNREQNFALNVLMDPEIDFVSLLGQAGTGKTLLTLAAGLAQVLDKKIYSEIIMTRVTVPVGEDIGFLPGTEEEKMTPWMGALEDNLDVLNKSDDEGGDWGRAATQDLIRSRIKVKSLNFMRGRTFLNKFLIIDEAQNLTPKQMKTLITRAGPGTKVVCLGNIAQIDTPYLTEGSSGLTYVVDHFKGWPHNGHVTLQRGERSRLADYAAEVL,not soluble
19,MCSKQSANQQISYRQTAEATLDKGMDNQPEAPYWFPKQLLKWQLSKDKAAKYNTASVPLAKRIDKWQLPTVNKTQDPKMKVVALSIMNSSTSGNAPRGINTFDANVFSNWQYIDQLVYWGGSAGEGLIVPPTADVIDSAHKNGVPVLGTVFFPQVVSGGKLKWLNDFLKQDADGHFPMADKLVAVAKAYGFDGWFINQETDPEVKSFDSASTGKTATSSTSNGLSKKHAQLMQQLIKEYKQKAGSKLDLMWYDSMTKDGKMDWQNALTKENQSYLVDANMKPVADSMFLNFWWTKKRLASQELLKKSHERAEKLGISPYNLFAGIDVQADGTATPVRWNLFANKQHVPYTSLGLYAPDWTHASSDTVDEFQAKEGALWVNLEHHHHHH,soluble
20,MTPILTDRPALARHRTRACRAPALFLHEEAAREVEERLSEVNRRFTAPAVVTAFPEVWRDRLPNARIVTDAEELALDPGAHDLVIHALAMHWSNDPVGQLVQSRRALRPDGLFLGLLFGGRTLSELRIALAEAEAAVTGGLSPRVLPMAEIRDLGALLQRAGFALPVADSLVREVRYRDTLHLMRDLRAMGETNALEARLRRPSRRALFAEAEARYPRRADDRIVASFEIICLTGWAPHESQQKPLRPGSAARSLAEALAAARKDGPGDG,not soluble
21,MGSDKIHHHHHHMKTLQTHRVLQALIGHFTPFLESGITELMINTEQELWLYKVNNTREKRGHALFDKAFLLRFCEQLASFRGLFFDEEHPTLNCSIPFTRYRVSANHFSITTNNQITLNIRVPRLKPLSLEDFTFKASDPKSLKDLALKGHNILISGETSSGKTSLLNALLDCVNKDERVVSVEDSQELDLKAFSNCVGLLVGKQENTRFNYEDALNMAMRLNPDRLIVGEIDTRNAALFLRLGNTGHKGMLSTIHANSAQNTLEALSLNLSMRYMYSLDKDLMRAYFKSAIDVIVHVNRINNERQIAEVLWTKEL,not soluble
22,TIYLYKNSIPSGKNKGENAILIDNKTIVEQLESAAKKEDKKSGESTTEQTQIQSKSVTEQKQPKIIGYTTTGNVHEDNKHIFPIDKLTSDRNFDRKIIVGATEETLDKSNTLQSNEAIVLPAPSKYKSTDTNKVTITQGPNIIGIHVNEKENAETQKFVDW,soluble
